In the DeepSol protein solubility set:

Experiment: soluble on expression in E. coli; label from the status in PepcDB or PDB records

For “MSRKKMGLLVMAMGTPYKEEDIERYYTHIRRGRKPEPEMLQDLKDRYEAIGGISPLAQITEQQAHNLEQHLNEIQDEITFKAYIGLKHIEPFIEDAVAEMHKDGITEAVSIVLAPHFSTFSVQSYNKRAKEEAEKLGGLTITSVESWYDEPKFVTYWVDRVKETYASMPEDERENAMLIVSAHSLPEKIKEFGDPYPDQLHESAKLIAEGAGVSEYAVGWQSEGNTPDPWLGPDVQDLTRDLFEQKGYQAFVYVPVGFVADHLEVLYDNDYECKVVTDDIGASYYRPEMPNAKPEFIDALATVVLKKLGR”, which “soluble on expression in E. coli” value is on record?
The value was “soluble”.

For “MQMESQRRDVFYVSDGTAITCETLGHVVLGQFAVQPNEKTFPFVESDEKLSELLKQIQRSYQLHGVKPLVFFSMVIPEMRTRLLQAPAHFYDVLESIVQRVSLDIEMEPAPKLQRSRSVGKDSDTYFDRIAAIEYTLAHDDGVSLKDLDRADIILLGVSRSGKTPTSLYMAMQFGLRVVNYPFIAEDMHAMRLLPEFEFHRHKLFGLTINAERLTEIRENRLAGSEYASNQQCQQELATVEALFRREAISYINTSSLSVEEISTRILERTGLKRRLF”, which “soluble on expression in E. coli” value is on record?
The value was “not soluble”.

With “MGSDKIHHHHHHMDIEDLRTFVAVADAGGVSAAARRLGISKSIVSRRLFRIEAELGVQLLARTTRGAALTEAGITFRDHAARASAEIDTARETILPAGELHGRLRIAMPLTFGPTHFAPVLAEMARQHPQLHIHTSYSDRFVDLIAEGFDCAIRGAYLQDSNLIAKRVGPIHGKLVASPAYIKAHGSPEMVEQLVNHQALMQGTEAWQFMDGDRIVTVQPQGKFKADSATALAAAAAAGLGIAWLPDCITHAYLASGALVPIMTRYPVPPGAVYVVRPPSQHPARKVRVLTEMLTEYFKRTPELWGVDG” as the sequence, how does the “soluble on expression in E. coli” value read?
Its value is “not soluble”.

Which “soluble on expression in E. coli” value does the source give for “SMSQIMYNYPAMLGHAGDMAGYAGTLQSLGAEIAVEQAALQSAWQGDTGITYQAWQAQWNQAMEDLVRAYHAMSSTHEANTMAMMARDTAEAAKWGG” here?
Its value is “soluble”.

With “MSLTKSYAEEQKRSVSEKLLKEKKLSLILDLDGTIVFTNPELCIPLESEEEPITPEQGFYFEIPEQNAKVFIRFRDGIVTFMEKVSKLYDIHVVTLGQKEYAFAIVNAINKLRNIPFITGDLVTAEDCSSVIVCDEKDTNDGLIDREETNERRSVKRSIPTMGKEEMQVIVDDRIDVWDNKNVVQICEYVPSTNQVDTELVRVTEVLQNIYTKFYDEHIEDVKEILHLFRKKILENKNLYFNREGHHHHHH” as the sequence, how does the “soluble on expression in E. coli” value read?
Its value is “soluble”.

For “MDVVFETVNCLESNRKIIIVKLPDGSSEKFFFNVTKRAFEKIVCVDGKPVQMDSDLTPHHSVWCPHIHKNIIFAYNHLLRMNLQYLFDSETLSFHETKCDQCHLDPKKSTNVKQILLVAASPKIRRPIVLTMSQEGRVLKMCYDEIEKNYVDMSPTEIKALTQLKDVTAAMEDLTLDSKVMESDLIPLVKEKSVFLPHDSILIAKNKKTNKIGQYVFDRYHHQFLEVVMSDIEIKQEMPNIAKLINVTMSTKTEQAISIRCTPGIGELKKFHYNRETASFDPMEEKAIVESDEEIQSFIEEIEKTQDIVCKKIKAILWFYHNVKPFLAKKLENPVKKNNDYKRYVFKPVEPEEKVDDEMDSVSEPESDSLSMSSSSRSSSRSSLSSDDSFEMVVDIDFVE”, which “soluble on expression in E. coli” value is on record?
Its value is “not soluble”.

With “MTSVNLSYPIGEYKPRESISKEQKDKWIQVLEEVPAKLKQAVEVMTDSQLDTPYRDGGWTVRQVVHHLADSHMNSYIRFKLSLTEETPAIRPYDEKAWSELKDSKTADPSGSLALLQELHGRWTALLRTLTDQQFKRGFYHPDTKEIITLENALGLYVWHSHHHIAHITELSRRMGWS” as the sequence, how does the “soluble on expression in E. coli” value read?
The value was “soluble”.

With “MGSDKIHHHHHHMTLSFVTRWRDELPETYTALSPTPLNNARLIWHNTELANTLSIPSSLFKNGAGVWGGEALLPGMSPLAQVYSGHQFGVWAGQLGDGRGILLGEQLLADGTTMDWHLKGAGLTPYSRMGDGRAVLRSTIRESLASEAMHYLGIPTTRALSIVTSDSPVYRETAEPGAMLMRVAPSHLRFGHFEHFYYRRESEKVRQLADFAIRHYWSHLADDEDKYRLWFSDVVARTASLIAQWQTVGFAHGVMNTDNMSLLGLTLDYGPFGFLDDYEPGFICNHSDHQGRYSFDNQPAVALWNLQRLAQTLSPFVAVDALNEALDSYQQVLLTHYGERMRQKLGFMTEQKEDNALLNELFSLMARERSDYTRTFRMLSLTEQHSAASPLRDEFIDRAAFDDWFARYRGRLQQDEVSDSERQQLMQSVNPALVLRNWLAQRAIEAAEKGDMTELHRLHEALRNPFSDRDDDYVSRPPDWGKRLEVSCSS” as the sequence, how does the “soluble on expression in E. coli” value read?
Its value is “not soluble”.
